US20220348629A1 (EUREKA THERAPEUTICS, published 2022)

Columns and labels:
[1] = molecular target: T1, PE-labeled AFP158/HLA-A*02:01 tetramer (human, biotinylated via the BSP peptide linked to the C-terminal end of the HLA-A*02:01 extracellular domain); assay: flow cytometry; Jurkat cells transduced with the construct, stained with PE-labelled AFP158/HLA-A*02:01 tetramer
T1 construct: monomers single chain; also called AFP158 tetramer; AFP158/HLA-A*02:01 tetramers; not shown: BSP peptide (BirA biotinylation site) at the C-terminus

[2] = molecular target: T1, PE-labeled AFP158/HLA-A*02:01 tetramer; assay: flow cytometry; J.RT3-T3.5 cells transduced with the construct, stained with PE-labelled AFP158/HLA-A*02:01 tetramer
[3] = molecular target: T1, PE-labeled AFP158/HLA-A*02:01 tetramer; assay: flow cytometry, AFP158 tetramer binding on transduced T cells
Experimental: Primary human T-cells were used for transduction after one-day stimulation with CD3/CD28 beads (Dynabeads®, Invitrogen) in the presence of interleukin-2 (IL-2) at 100 U/ml. Concentrated lentiviruses were applied to T-cells in Retronectin-(Takara) coated 6-well plates for 96 hours. Transduction efficiencies of the anti-AFP and anti-CD19 chimeric constructs were assessed by flow cytometry, using biotinylated AFP158/HLA-A*02:01 tetramer (“AFP158 tetramer”) with PE-conjugated streptavidin or anti-myc antibody respectively. Repeat flow cytometry analyses were done on day 5 and every 3-4 days thereafter.
Specific lysis was measured after 16 hr incubation using the Cytox 96 Non-radioactive Cytotoxicity Assay (Promega).

Binder | % of cells in gate high [1] [%] | % of cells in gate low [1] [%] | % of cells in gate negative [1] [%] | % of cells in gate high [2] [%] | % of cells in gate low [2] [%] | % of cells in gate negative [2] [%] | AFP 158 tetramer+ (percent) [3] [percent]
anti-AFP158/HLA-A*02:01-abTCR-4 (other) chain 1: QSVLTQPASVSGSPGQSITISCTGTSSDVGGYNYVSWYQQHPGKAPKLMIYDVNNRPSEVSNRFSGSKSGNTASLTISGLQAEDEADYYCSSYTTGSRAVFGGGTKLTVLGQPKANPTVTLFPPSSEELQANKATLVCLISDFYPGAVTVAWKADGSPVKAGVETTKPSKQSNNKYAASSYLSLTPEQWKSHRSYSCQVTHEGSTVEKTVAPTECSESSCDVKLVEKSFETDTNLNFQNLSVIGFRILLLKVAGFNLLMTLRLWSSDYKDHDGDYKDHDIDYKDDDDK chain 2: EVQLVQSGAEVKKPGESLTISCKASGYSFPNYWITWVRQMSGGGLEWMGRIDPGDSYTTYNPSFQGHVTISIDKSTNTAYLHWNSLKASDTAMYYCARYYVSLVDIWGQGTLVTVSSASTKGPSVFPLAPSSKSTSGGTAALGCLVKDYFPEPVTVSWNSGALTSGVHTFPAVLQSSGLYSLSSVVTVPSSSLGTQTYICNVNHKPSNTKVDKRVEPKSCADCGFTSVSYQQGVLSATILYEILLGKATLYAVLVSALVLMAMVKRKDFYPYDVPDYA | 0.574 | 12.3 | 87.1 | 0.928 | 19.1 | 80.1 | 
anti-AFP158/HLA-A*02:01-abTCR-3 (other) chain 1: EVQLVQSGAEVKKPGESLTISCKASGYSFPNYWITWVRQMSGGGLEWMGRIDPGDSYTTYNPSFQGHVTISIDKSTNTAYLHWNSLKASDTAMYYCARYYVSLVDIWGQGTLVTVSSASTKGPSVFPLAPSSKSTSGGTAALGCLVKDYFPEPVTVSWNSGALTSGVHTFPAVLQSSGLYSLSSVVTVPSSSLGTQTYICNVNHKPSNTKVDKRVEPKSCESSCDVKLVEKSFETDTNLNFQNLSVIGFRILLLKVAGFNLLMTLRLWSSDYKDHDGDYKDHDIDYKDDDDK chain 2: QSVLTQPASVSGSPGQSITISCTGTSSDVGGYNYVSWYQQHPGKAPKLMIYDVNNRPSEVSNRFSGSKSGNTASLTISGLQAEDEADYYCSSYTTGSRAVFGGGTKLTVLGQPKANPTVTLFPPSSEELQANKATLVCLISDFYPGAVTVAWKADGSPVKAGVETTKPSKQSNNKYAASSYLSLTPEQWKSHRSYSCQVTHEGSTVEKTVAPTECSADCGFTSVSYQQGVLSATILYEILLGKATLYAVLVSALVLMAMVKRKDFYPYDVPDYA | 3.7 | 56.2 | 40.2 | 5.68 |  | 19.5 | 
anti-AFP158/HLA-A*02:01 abTCR with IgG1 CH1 domain (other) heavy: EVQLVQSGAEVKKPGESLTISCKASGYSFPNYWITWVRQMSGGGLEWMGRIDPGDSYTTYNPSFQGHVTISIDKSTNTAYLHWNSLKASDTAMYYCARYYVSLVDIWGQGTLVTVSSASTKGPSVFPLAPSSKSTSGGTAALGCLVKDYFPEPVTVSWNSGALTSGVHTFPAVLQSSGLYSLSSVVTVPSSSLGTQTYICNVNHKPSNTKVDKRVEPKSCEVKTDSTDHVKPKETENTKQPSKSCHKPKAIVHTEKVNMMSLTVLGLRMLFAKTVAVNFLLTAKLFFL light: QSVLTQPASVSGSPGQSITISCTGTSSDVGGYNYVSWYQQHPGKAPKLMIYDVNNRPSEVSNRFSGSKSGNTASLTISGLQAEDEADYYCSSYTTGSRAVFGGGTKLTVLGQPKANPTVTLFPPSSEELQANKATLVCLISDFYPGAVTVAWKADGSPVKAGVETTKPSKQSNNKYAASSYLSLTPEQWKSHRSYSCQVTHEGSTVEKTVAPTECSPIKTDVITMDPKDNCSKDANDTLLLQLTNTSAYYMYLLLLLKSVVYFAIITCCLLRRTAFCCNGEKS |  |  |  |  |  |  | 64.5
anti-AFP158/HLA-A*02:01 abTCR with IgG4 CH1 domain (other) heavy: EVQLVQSGAEVKKPGESLTISCKASGYSFPNYWITWVRQMSGGGLEWMGRIDPGDSYTTYNPSFQGHVTISIDKSTNTAYLHWNSLKASDTAMYYCARYYVSLVDIWGQGTLVTVSSASTKGPSVFPLAPCSRSTSESTAALGCLVKDYFPEPVTVSWNSGALTSGVHTFPAVLQSSGLYSLSSVVTVPSSSLGTKTYTCNVDHKPSNTKVDKRVESKYGEVKTDSTDHVKPKETENTKQPSKSCHKPKAIVHTEKVNMMSLTVLGLRMLFAKTVAVNFLLTAKLFFL light: QSVLTQPASVSGSPGQSITISCTGTSSDVGGYNYVSWYQQHPGKAPKLMIYDVNNRPSEVSNRFSGSKSGNTASLTISGLQAEDEADYYCSSYTTGSRAVFGGGTKLTVLGQPKANPTVTLFPPSSEELQANKATLVCLISDFYPGAVTVAWKADGSPVKAGVETTKPSKQSNNKYAASSYLSLTPEQWKSHRSYSCQVTHEGSTVEKTVAPTECSPIKTDVITMDPKDNCSKDANDTLLLQLTNTSAYYMYLLLLLKSVVYFAIITCCLLRRTAFCCNGEKS |  |  |  |  |  |  | 22.2

Now from value to binder:

% of cells in gate high [1] [%] | % of cells in gate low [1] [%] | % of cells in gate negative [1] [%] | % of cells in gate high [2] [%] | % of cells in gate low [2] [%] | % of cells in gate negative [2] [%] | AFP 158 tetramer+ (percent) [3] [percent] | Binder
6.17 | 4.36 | 89.5 | 8 | 5.35 | 87.2 |  | anti-AFP158/HLA-A*02:01-abTCR-6 (other) chain 1: EVQLVQSGAEVKKPGESLTISCKASGYSFPNYWITWVRQMSGGGLEWMGRIDPGDSYTTYNPSFQGHVTISIDKSTNTAYLHWNSLKASDTAMYYCARYYVSLVDIWGQGTLVTVSSASTKGPSVFPLAPSSKSTSGGTAALGCLVKDYFPEPVTVSWNSGALTSGVHTFPAVLQSSGLYSLSSVVTVPSSSLGTQTYICNVNHKPSNTKVDKRVEPKSCDHVKPKETENTKQPSKSCHKPKAIVHTEKVNMMSLTVLGLRMLFAKTVAVNFLLTAKLFFLYPYDVPDYA chain 2: QSVLTQPASVSGSPGQSITISCTGTSSDVGGYNYVSWYQQHPGKAPKLMIYDVNNRPSEVSNRFSGSKSGNTASLTISGLQAEDEADYYCSSYTTGSRAVFGGGTKLTVLGQPKANPTVTLFPPSSEELQANKATLVCLISDFYPGAVTVAWKADGSPVKAGVETTKPSKQSNNKYAASSYLSLTPEQWKSHRSYSCQVTHEGSTVEKTVAPTECSMDPKDNCSKDANDTLLLQLTNTSAYYMYLLLLLKSVVYFAIITCCLLRRTAFCCNGEKSDYKDHDGDYKDHDIDYKDDDDK
7.64 | 3.7 | 88.7 | 9.41 | 4.98 | 86.1 |  | anti-AFP158/HLA-A*02:01-abTCR-5 (other) chain 1: QSVLTQPASVSGSPGQSITISCTGTSSDVGGYNYVSWYQQHPGKAPKLMIYDVNNRPSEVSNRFSGSKSGNTASLTISGLQAEDEADYYCSSYTTGSRAVFGGGTKLTVLGQPKANPTVTLFPPSSEELQANKATLVCLISDFYPGAVTVAWKADGSPVKAGVETTKPSKQSNNKYAASSYLSLTPEQWKSHRSYSCQVTHEGSTVEKTVAPTECSDHVKPKETENTKQPSKSCHKPKAIVHTEKVNMMSLTVLGLRMLFAKTVAVNFLLTAKLFFLYPYDVPDYA chain 2: EVQLVQSGAEVKKPGESLTISCKASGYSFPNYWITWVRQMSGGGLEWMGRIDPGDSYTTYNPSFQGHVTISIDKSTNTAYLHWNSLKASDTAMYYCARYYVSLVDIWGQGTLVTVSSASTKGPSVFPLAPSSKSTSGGTAALGCLVKDYFPEPVTVSWNSGALTSGVHTFPAVLQSSGLYSLSSVVTVPSSSLGTQTYICNVNHKPSNTKVDKRVEPKSCMDPKDNCSKDANDTLLLQLTNTSAYYMYLLLLLKSVVYFAIITCCLLRRTAFCCNGEKSDYKDHDGDYKDHDIDYKDDDDK
19 | 9.54 | 71.5 | 24.2 | 13.8 | 63.4 |  | anti-AFP158/HLA-A*02:01-abTCR-6MD (other, also called anti-AFP158 abTCR) chain 1: EVQLVQSGAEVKKPGESLTISCKASGYSFPNYWITWVRQMSGGGLEWMGRIDPGDSYTTYNPSFQGHVTISIDKSTNTAYLHWNSLKASDTAMYYCARYYVSLVDIWGQGTLVTVSSASTKGPSVFPLAPSSKSTSGGTAALGCLVKDYFPEPVTVSWNSGALTSGVHTFPAVLQSSGLYSLSSVVTVPSSSLGTQTYICNVNHKPSNTKVDKRVEPKSCEVKTDSTDHVKPKETENTKQPSKSCHKPKAIVHTEKVNMMSLTVLGLRMLFAKTVAVNFLLTAKLFFLYPYDVPDYA chain 2: QSVLTQPASVSGSPGQSITISCTGTSSDVGGYNYVSWYQQHPGKAPKLMIYDVNNRPSEVSNRFSGSKSGNTASLTISGLQAEDEADYYCSSYTTGSRAVFGGGTKLTVLGQPKANPTVTLFPPSSEELQANKATLVCLISDFYPGAVTVAWKADGSPVKAGVETTKPSKQSNNKYAASSYLSLTPEQWKSHRSYSCQVTHEGSTVEKTVAPTECSPIKTDVITMDPKDNCSKDANDTLLLQLTNTSAYYMYLLLLLKSVVYFAIITCCLLRRTAFCCNGEKSDYKDHDGDYKDHDIDYKDDDDK
